Patent publication US20150344570A1 (published 2015)

How the values were obtained:
[1] = molecular target: T1, FcγRIIIa extracellular domain with C-terminal His tag (human, UniProt P08637 17-208); experiment: SPR (Biacore), FcγR as analyte over captured antibody; GpH7-A5/GpH7-B3/GpL16-k0 = 100
T1 construct: extracellular domain; also called FcgRIIIa; 3a; not shown: His tag at the C terminus

[2] = molecular target: T2, FcγRIIb extracellular domain with C-terminal His tag (human, UniProt P31994 43-217); experiment: as above
T2 construct: extracellular domain; also called FcgRIIb; 2b; not shown: His tag at the C terminus
T2 sequence (looked up): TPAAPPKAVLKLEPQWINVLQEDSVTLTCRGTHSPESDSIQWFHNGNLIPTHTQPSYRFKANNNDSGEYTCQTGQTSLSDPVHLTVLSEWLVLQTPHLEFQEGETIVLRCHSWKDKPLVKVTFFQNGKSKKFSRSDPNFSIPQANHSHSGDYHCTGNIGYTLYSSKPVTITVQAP

[3] = molecular target: T1, FcγRIIIa extracellular domain with …; experiment: SPR (Biacore); He/Con_3a divided by He/Con_2b (FcγRIIb)
FcγRIa = molecular target: T3, FcγRIa (human, UniProt P12314 16-292); experiment: SPR (Biacore), relative binding; control HoCon Ab GpH7-B3/GpL16-k0
T3 construct: extracellular domain; also called FcgRI; FcgRIa; not shown: His tag attached to the C terminus
T3 sequence (P12314 16-292): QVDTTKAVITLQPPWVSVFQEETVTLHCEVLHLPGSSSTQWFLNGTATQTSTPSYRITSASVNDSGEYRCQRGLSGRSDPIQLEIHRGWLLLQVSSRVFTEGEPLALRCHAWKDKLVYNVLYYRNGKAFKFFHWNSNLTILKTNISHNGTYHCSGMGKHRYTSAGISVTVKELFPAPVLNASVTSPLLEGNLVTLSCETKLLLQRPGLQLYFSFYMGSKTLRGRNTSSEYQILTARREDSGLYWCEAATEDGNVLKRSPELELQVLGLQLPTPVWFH

T1 sequence (P08637 17-208): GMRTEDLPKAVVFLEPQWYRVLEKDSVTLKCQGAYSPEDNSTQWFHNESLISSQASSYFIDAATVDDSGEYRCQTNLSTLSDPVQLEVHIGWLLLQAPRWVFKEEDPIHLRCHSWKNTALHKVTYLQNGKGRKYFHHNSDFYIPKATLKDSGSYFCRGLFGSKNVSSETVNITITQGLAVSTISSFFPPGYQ

B1: GpH7-A5/GpH7-B3 variant P271_09D/GpL16-k0 (antibody, human IgG1, kappa)
heavy 1: not shown
heavy 2: not shown
light: DIVMTQSPLSLPVTPGEPASISCQASESLVHSNRNTYLHWYLQKPGQSPQLLIYKVSNRFSGVPDRFSGSGSGTDFTLKISRVEAEDVGVYYCSQNTHVPPTFGQGTKVEIERTVAAPSVFIFPPSDEQLKSGTASVVCLLNNFYPREAKVQWKVDNALQSGNSQESVTEQDSKDSTYSLSSTLTLSKADYEKHKVYACEVTHQGLSSPVTKSFNRGEC
notes: Heterodimerized IgG1 antibody; alteration in the GpH7-B3 chain only; also called He Ab
In the case of B1, the He/Con_3a [1] is reported as 93.1 % of control, the He/Con_2b [2] is reported as 120 % of control and the “He_3a/2b (IIIa/IIb)” value [3] is reported as 0.77 ratio.

B2: GpH7-B3 variant K334_01G/GpL16-k0 (antibody, human IgG1, kappa)
heavy: not shown
light: B1 light
notes: Alteration in both H chains; also called Ho Ab K334_01G
With B2 the Ho/Con_1a (FcγRIa) was 106 % of control (=100).

B3: GpH7-B3 variant Q295_10E/GpL16-k0 (antibody, human IgG1, kappa)
heavy: not shown
light: B1 light
notes: Alteration in both H chains; also called Ho Ab Q295_10E
B3 was tested, and the Ho/Con_1a (FcγRIa) was 105 % of control (=100).

B4: GpH7-A5/GpH7-B3 variant Y296_13S/GpL16-k0 (antibody, human IgG1, kappa)
heavy 1: not shown
heavy 2: not shown
light: B1 light
notes: as for B1
For B4, the He/Con_3a [1] was 61.8 % of control, the He/Con_2b [2] was 86.3 % of control and the “He_3a/2b (IIIa/IIb)” value [3] was 0.72 ratio.

B5: GpH7-B3 variant K334_03V/GpL16-k0 (antibody, human IgG1, kappa)
heavy: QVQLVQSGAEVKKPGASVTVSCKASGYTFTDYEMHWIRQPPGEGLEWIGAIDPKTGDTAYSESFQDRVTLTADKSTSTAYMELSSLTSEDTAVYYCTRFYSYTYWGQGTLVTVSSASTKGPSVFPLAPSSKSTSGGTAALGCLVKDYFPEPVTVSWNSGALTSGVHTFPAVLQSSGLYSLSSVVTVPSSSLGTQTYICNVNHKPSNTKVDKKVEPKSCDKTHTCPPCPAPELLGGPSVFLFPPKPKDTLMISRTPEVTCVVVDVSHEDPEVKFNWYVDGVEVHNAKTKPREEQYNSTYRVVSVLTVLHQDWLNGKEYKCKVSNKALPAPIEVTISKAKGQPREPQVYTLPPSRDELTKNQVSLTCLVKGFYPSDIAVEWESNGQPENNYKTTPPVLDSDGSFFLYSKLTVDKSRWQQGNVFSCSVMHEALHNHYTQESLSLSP
light: B1 light
notes: Alteration in both H chains; also called Ho Ab K334_03V
With B5 the Ho/Con_1a (FcγRIa) was 105 % of control (=100).

B6: GpH7-B3 variant K326_09D/GpL16-k0 (antibody, human IgG1, kappa)
heavy: not shown
light: B1 light
notes: Alteration in both H chains; also called Ho Ab K326_09D
B6 was tested, and the Ho/Con_1a (FcγRIa) was 106 % of control (=100).

B7: GpH7-B3 variant K326_04F/GpL16-k0 (antibody, human IgG1, kappa)
heavy: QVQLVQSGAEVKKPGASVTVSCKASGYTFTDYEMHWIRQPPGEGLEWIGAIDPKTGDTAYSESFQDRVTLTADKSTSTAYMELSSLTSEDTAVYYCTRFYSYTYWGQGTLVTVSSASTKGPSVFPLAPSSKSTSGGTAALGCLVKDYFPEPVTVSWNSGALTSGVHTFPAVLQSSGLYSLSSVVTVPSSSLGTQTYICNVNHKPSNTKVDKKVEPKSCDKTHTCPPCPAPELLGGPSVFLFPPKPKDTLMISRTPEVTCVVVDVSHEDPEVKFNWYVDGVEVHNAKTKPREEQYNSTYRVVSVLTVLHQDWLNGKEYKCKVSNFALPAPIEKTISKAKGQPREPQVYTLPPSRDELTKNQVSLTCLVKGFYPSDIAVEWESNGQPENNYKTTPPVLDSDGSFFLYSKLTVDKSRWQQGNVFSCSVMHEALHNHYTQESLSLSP
light: B1 light
notes: Alteration in both H chains; also called Ho Ab K326_04F
In the case of B7, the Ho/Con_1a (FcγRIa) is reported as 102 % of control (=100).

B8: GpH7-A5/GpH7-B3 variant Y296_11K/GpL16-k0 (antibody, human IgG1, kappa)
heavy 1: not shown
heavy 2: not shown
light: B1 light
notes: as for B1
B8 was tested, and the He/Con_3a [1] was 56.7 % of control, the He/Con_2b [2] was 72.8 % of control and the “He_3a/2b (IIIa/IIb)” value [3] was 0.78 ratio.

B9: GpH7-B3 variant L328_15Y/GpL16-k0 (antibody, human IgG1, kappa)
heavy: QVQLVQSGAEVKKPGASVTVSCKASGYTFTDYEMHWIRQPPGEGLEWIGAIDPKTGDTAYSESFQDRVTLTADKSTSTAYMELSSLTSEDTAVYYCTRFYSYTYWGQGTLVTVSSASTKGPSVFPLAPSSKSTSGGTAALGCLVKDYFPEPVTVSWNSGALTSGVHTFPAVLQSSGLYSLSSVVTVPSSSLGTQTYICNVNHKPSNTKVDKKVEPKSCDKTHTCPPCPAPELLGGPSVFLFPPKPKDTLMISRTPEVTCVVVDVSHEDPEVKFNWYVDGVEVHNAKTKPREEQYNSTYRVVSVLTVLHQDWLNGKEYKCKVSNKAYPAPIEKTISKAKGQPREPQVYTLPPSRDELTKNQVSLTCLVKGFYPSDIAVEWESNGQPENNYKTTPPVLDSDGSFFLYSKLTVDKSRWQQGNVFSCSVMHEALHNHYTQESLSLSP
light: B1 light
notes: Alteration in both H chains; also called Ho Ab L328_15Y
B9 was tested, and the Ho/Con_1a (FcγRIa) was 104 % of control (=100).

B10: GpH7-B3 variant K334_08L/GpL16-k0 (antibody, human IgG1, kappa)
heavy: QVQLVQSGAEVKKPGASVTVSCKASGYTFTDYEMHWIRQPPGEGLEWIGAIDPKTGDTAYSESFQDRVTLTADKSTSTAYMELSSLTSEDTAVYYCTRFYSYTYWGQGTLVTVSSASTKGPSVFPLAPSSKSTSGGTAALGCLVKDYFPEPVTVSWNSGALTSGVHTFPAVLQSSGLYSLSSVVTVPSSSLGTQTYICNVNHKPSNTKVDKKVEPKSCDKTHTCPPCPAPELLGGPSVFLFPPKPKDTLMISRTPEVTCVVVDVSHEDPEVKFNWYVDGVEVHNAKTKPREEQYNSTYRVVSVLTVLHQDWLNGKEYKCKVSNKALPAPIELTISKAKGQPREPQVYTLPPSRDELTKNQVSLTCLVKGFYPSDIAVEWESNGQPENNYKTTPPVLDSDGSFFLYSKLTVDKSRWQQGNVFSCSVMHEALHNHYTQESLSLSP
light: B1 light
notes: Alteration in both H chains; also called Ho Ab K334_08L
With B10 the Ho/Con_1a (FcγRIa) was 108 % of control (=100).

B11: GpH7-B3 variant S239_10E/GpL16-k0 (antibody, human IgG1, kappa)
heavy: not shown
light: B1 light
notes: Alteration in both H chains; also called Ho Ab S239_10E
In the case of B11, the Ho/Con_1a (FcγRIa) is reported as 106 % of control (=100).

B12: GpH7-A5/GpH7-B3 variant S298_05P/GpL16-k0 (antibody, human IgG1, kappa)
heavy 1: not shown
heavy 2: not shown
light: B1 light
notes: as for B1
With B12 the He/Con_3a [1] was 8.2 % of control, the He/Con_2b [2] was 11.9 % of control and the “He_3a/2b (IIIa/IIb)” value [3] was 0.69 ratio.

B13: GpH7-A5/GpH7-B3 variant S298_08L/GpL16-k0 (antibody, human IgG1, kappa)
heavy 1: not shown
heavy 2: not shown
light: B1 light
notes: as for B1
B13 was tested, and the He/Con_3a [1] was 73.5 % of control, the He/Con_2b [2] was 108 % of control and the “He_3a/2b (IIIa/IIb)” value [3] was 0.68 ratio.

B14: GpH7-B3 variant K326_08L/GpL16-k0 (antibody, human IgG1, kappa)
heavy: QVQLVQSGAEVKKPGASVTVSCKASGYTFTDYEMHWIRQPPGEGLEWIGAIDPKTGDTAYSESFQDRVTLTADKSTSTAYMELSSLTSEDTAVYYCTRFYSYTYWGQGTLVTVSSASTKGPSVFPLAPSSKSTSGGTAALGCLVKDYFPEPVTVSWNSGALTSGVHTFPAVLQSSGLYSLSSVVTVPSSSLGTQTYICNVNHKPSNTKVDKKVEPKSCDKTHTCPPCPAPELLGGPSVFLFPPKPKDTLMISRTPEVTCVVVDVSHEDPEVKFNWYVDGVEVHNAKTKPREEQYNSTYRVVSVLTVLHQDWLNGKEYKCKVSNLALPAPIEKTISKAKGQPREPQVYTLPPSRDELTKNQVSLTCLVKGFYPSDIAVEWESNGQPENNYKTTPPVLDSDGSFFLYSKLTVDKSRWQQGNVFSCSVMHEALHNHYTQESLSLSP
light: B1 light
notes: Alteration in both H chains; also called Ho Ab K326_08L
In the case of B14, the Ho/Con_1a (FcγRIa) is reported as 101 % of control (=100).

B15: GpH7-B3 variant K326_20W/GpL16-k0 (antibody, human IgG1, kappa)
heavy: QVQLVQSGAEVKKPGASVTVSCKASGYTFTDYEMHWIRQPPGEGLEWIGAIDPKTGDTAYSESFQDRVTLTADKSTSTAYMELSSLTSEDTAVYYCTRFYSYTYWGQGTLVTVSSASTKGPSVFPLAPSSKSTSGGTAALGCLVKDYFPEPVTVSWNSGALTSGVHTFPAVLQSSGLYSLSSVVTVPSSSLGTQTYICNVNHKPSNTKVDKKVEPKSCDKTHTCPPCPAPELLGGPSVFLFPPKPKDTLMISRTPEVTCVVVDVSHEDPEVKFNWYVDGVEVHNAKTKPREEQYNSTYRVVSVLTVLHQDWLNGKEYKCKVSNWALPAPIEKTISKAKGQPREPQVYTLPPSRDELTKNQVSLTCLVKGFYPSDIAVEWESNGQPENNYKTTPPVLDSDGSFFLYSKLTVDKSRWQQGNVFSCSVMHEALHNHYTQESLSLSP
light: B1 light
notes: Alteration in both H chains; also called Ho Ab K326_20W
B15 was tested, and the Ho/Con_1a (FcγRIa) was 104 % of control (=100).

B16: GpH7-A5/GpH7-B3 variant Y300_10E/GpL16-k0 (antibody, human IgG1, kappa)
heavy 1: not shown
heavy 2: not shown
light: B1 light
notes: as for B1
In the case of B16, the He/Con_3a [1] is reported as 104 % of control, the He/Con_2b [2] is reported as 134 % of control and the “He_3a/2b (IIIa/IIb)” value [3] is reported as 0.78 ratio.

B17: GpH7-A5/GpH7-B3 variant Y296_18N/GpL16-k0 (antibody, human IgG1, kappa)
heavy 1: not shown
heavy 2: not shown
light: B1 light
notes: as for B1
For B17, the He/Con_3a [1] was 72.1 % of control, the He/Con_2b [2] was 91.5 % of control and the “He_3a/2b (IIIa/IIb)” value [3] was 0.79 ratio.

B18: GpH7-B3 variant Q295_12R/GpL16-k0 (antibody, human IgG1, kappa)
heavy: not shown
light: B1 light
notes: Alteration in both H chains; also called Ho Ab Q295_12R
For B18, the Ho/Con_1a (FcγRIa) was 101 % of control (=100).

B19: GpH7-B3 variant S267_18N/GpL16-k0 (antibody, human IgG1, kappa)
heavy: not shown
light: B1 light
notes: Alteration in both H chains; also called Ho Ab S267_18N
In the case of B19, the Ho/Con_1a (FcγRIa) is reported as 107 % of control (=100).

B20: GpH7-B3 variant K334_02A/GpL16-k0 (antibody, human IgG1, kappa)
heavy: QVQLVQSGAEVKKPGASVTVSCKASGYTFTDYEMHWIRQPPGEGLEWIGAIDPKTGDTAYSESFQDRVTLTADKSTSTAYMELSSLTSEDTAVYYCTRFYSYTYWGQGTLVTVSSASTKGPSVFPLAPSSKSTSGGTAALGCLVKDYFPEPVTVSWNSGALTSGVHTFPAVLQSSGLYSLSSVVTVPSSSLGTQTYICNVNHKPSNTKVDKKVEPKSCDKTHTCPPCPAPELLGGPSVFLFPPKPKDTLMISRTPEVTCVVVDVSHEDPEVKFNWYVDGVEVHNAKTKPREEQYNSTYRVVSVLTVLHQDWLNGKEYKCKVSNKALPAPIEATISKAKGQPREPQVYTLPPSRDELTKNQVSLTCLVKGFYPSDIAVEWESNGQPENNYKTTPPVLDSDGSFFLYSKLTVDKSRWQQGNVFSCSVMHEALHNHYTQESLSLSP
light: B1 light
notes: Alteration in both H chains; also called Ho Ab K334_02A
For B20, the Ho/Con_1a (FcγRIa) was 106 % of control (=100).

B21: GpH7-B3 variant K334_16H/GpL16-k0 (antibody, human IgG1, kappa)
heavy: not shown
light: B1 light
notes: Alteration in both H chains; also called Ho Ab K334_16H
In the case of B21, the Ho/Con_1a (FcγRIa) is reported as 106 % of control (=100).

B22: GpH7-B3 variant P271_19Q/GpL16-k0 (antibody, human IgG1, kappa)
heavy: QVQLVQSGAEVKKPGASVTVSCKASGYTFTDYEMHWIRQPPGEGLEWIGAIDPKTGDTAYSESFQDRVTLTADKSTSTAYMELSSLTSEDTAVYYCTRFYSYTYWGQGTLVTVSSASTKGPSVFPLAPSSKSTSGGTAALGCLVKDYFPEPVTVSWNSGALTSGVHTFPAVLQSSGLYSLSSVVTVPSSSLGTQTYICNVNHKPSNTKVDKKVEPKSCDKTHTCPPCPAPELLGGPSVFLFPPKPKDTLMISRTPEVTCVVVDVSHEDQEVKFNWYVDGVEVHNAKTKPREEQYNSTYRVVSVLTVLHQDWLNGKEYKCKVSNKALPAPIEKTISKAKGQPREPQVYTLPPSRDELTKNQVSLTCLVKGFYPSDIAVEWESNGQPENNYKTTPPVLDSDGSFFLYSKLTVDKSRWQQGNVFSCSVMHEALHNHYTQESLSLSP
light: B1 light
notes: Alteration in both H chains; also called Ho Ab P271_19Q
With B22 the Ho/Con_1a (FcγRIa) was 104 % of control (=100).

B23: GpH7-B3 variant S267_19Q/GpL16-k0 (antibody, human IgG1, kappa)
heavy: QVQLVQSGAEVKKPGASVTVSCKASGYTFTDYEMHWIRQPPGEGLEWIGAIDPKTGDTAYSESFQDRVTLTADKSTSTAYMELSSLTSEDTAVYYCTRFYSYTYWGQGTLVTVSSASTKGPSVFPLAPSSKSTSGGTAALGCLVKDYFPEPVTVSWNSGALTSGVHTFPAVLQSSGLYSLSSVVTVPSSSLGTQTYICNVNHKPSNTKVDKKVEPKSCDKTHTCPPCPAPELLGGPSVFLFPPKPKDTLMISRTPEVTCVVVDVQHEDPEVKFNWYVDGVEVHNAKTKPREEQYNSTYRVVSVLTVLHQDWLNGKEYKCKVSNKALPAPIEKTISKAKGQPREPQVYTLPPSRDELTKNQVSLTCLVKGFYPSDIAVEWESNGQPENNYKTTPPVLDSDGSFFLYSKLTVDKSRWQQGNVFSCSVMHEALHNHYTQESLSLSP
light: B1 light
notes: Alteration in both H chains; also called Ho Ab S267_19Q
In the case of B23, the Ho/Con_1a (FcγRIa) is reported as 104 % of control (=100).

B24: GpH7-B3 variant K334_18N/GpL16-k0 (antibody, human IgG1, kappa)
heavy: not shown
light: B1 light
notes: Alteration in both H chains; also called Ho Ab K334_18N
With B24 the Ho/Con_1a (FcγRIa) was 108 % of control (=100).

B25: GpH7-B3 variant K326_10E/GpL16-k0 (antibody, human IgG1, kappa)
heavy: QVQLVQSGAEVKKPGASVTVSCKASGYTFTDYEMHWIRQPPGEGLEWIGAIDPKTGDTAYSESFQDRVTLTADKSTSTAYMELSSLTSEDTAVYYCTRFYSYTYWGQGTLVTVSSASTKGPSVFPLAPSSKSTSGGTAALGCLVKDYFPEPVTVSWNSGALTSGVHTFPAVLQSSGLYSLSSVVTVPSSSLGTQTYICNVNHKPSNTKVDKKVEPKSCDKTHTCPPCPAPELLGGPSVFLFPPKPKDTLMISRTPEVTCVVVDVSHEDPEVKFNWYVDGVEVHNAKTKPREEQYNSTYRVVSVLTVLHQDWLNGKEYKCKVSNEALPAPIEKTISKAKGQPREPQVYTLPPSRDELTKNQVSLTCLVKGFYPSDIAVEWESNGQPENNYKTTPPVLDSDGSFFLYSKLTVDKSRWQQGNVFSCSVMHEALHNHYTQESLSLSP
light: B1 light
notes: Alteration in both H chains; also called Ho Ab K326_10E
B25 was tested, and the Ho/Con_1a (FcγRIa) was 105 % of control (=100).
